# Measurements as given in the supplement of paper PMC7877785.
# ± gives the uncertainty stated by the source.
# Assay: self-splicing fitness, log relative to wild type (ln ratio); higher = more splicing; Tetrahymena group I intron in knt gene, E. coli kanamycin selection, DiMSum; sequences stand for … in CUCUCU…GGAGGGAAAAGUUAUCAGGCAUGCACCUGGUAGCUAGUCUUUAAACCAAUAGAUUGCAUCGGUUUAAAAGGCAAGACCGUCAAAUUGCGGGAAAGGGGUCAACAGCCGUUCAGUACCAAGUCUCAGGGGAAACUUUGAGAUGGCCUUGCAAAGGGUAUGGUAAUAAGCUGACGGACAUGGUCCUAACCACGCAGCCAAGUCCUAAGUCAACAGAUCUUCUGUUGAUAUGGAUGCAGUUCACAGACUAAAUGUCGGUCGGGGAAGAUGUAUUCUUCUCAUAAGAUAUAGUCGGACCUCUCCUUAAUGGGAGCUAGCGGAUGAAGUGAUGCAACACUGGAGCCGCUGGGAACUAAUUUGUAUGCGAAAGUAUAUUGAUUAGUUUUGGAGUACUCGUGGUCG
# Summary of the method: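 The eight P1ex-region nucleotides of an intron in the knt kanamycin-resistance gene on pET-22b(+) were all randomised and the library put into E. coli BL21(DE3). Six replicate transformations were grown overnight at 37°C or 30°C on LB agar with or without 25 μg/mL kanamycin, together with 100 μg/mL carbenicillin, 50 μM IPTG and 0.2% rhamnose. Colonies were pooled and amplicon-sequenced on an Illumina HiSeq 2500. Fitness from DiMSum is the error-weighted combination of wild-type-normalised replicate fold changes, kanamycin over none.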
sequence,measurement,setting,value
UUUGAGCAAUAUUACGUGAG,self-splicing fitness (ln),30 °C,-1.35 ± 0.11
same,self-splicing fitness (ln),37 °C,0.29 ± 0.14
UUUGAGCAAUAUUACGUGCG,self-splicing fitness (ln),37 °C,-1.29 ± 0.25
UUUGAGCAAUAUUACGUGUA,self-splicing fitness (ln),30 °C,-3.76 ± 0.35
same,self-splicing fitness (ln),37 °C,-2.78 ± 0.28
UUUGAGCAAUAUUACGUUGC,self-splicing fitness (ln),30 °C,-2.68 ± 0.34
same,self-splicing fitness (ln),37 °C,-2.29 ± 0.36
UUUUAGCAAUAUUACGAAAC,self-splicing fitness (ln),37 °C,-2.4 ± 0.49
UUUUAGCAAUAUUACGAACA,self-splicing fitness (ln),37 °C,-0.949 ± 0.48
UUUUAGCAAUAUUACGAAUG,self-splicing fitness (ln),30 °C,-1.04 ± 0.077
same,self-splicing fitness (ln),37 °C,-0.0853 ± 0.096
UUUUAGCAAUAUUACGACCU,self-splicing fitness (ln),37 °C,-1.36 ± 0.44
UUUUAGCAAUAUUACGACGC,self-splicing fitness (ln),30 °C,-2.17 ± 0.31
same,self-splicing fitness (ln),37 °C,-1.56 ± 0.28
UUUUAGCAAUAUUACGAGAU,self-splicing fitness (ln),37 °C,-1.25 ± 0.4
UUUUAGCAAUAUUACGAUGA,self-splicing fitness (ln),30 °C,0.0426 ± 0.16
same,self-splicing fitness (ln),37 °C,-0.186 ± 0.2
UUUUAGCAAUAUUACGAUGG,self-splicing fitness (ln),30 °C,-1.32 ± 0.19
same,self-splicing fitness (ln),37 °C,-1.22 ± 0.2
UUUUAGCAAUAUUACGCAAG,self-splicing fitness (ln),30 °C,-1.08 ± 0.15
same,self-splicing fitness (ln),37 °C,-1.14 ± 0.21
UUUUAGCAAUAUUACGCCCU,self-splicing fitness (ln),30 °C,-2.16 ± 0.35
same,self-splicing fitness (ln),37 °C,-0.426 ± 0.28
UUUUAGCAAUAUUACGGGUU,self-splicing fitness (ln),37 °C,-2.26 ± 0.29
UUUUAGCAAUAUUACGGUGU,self-splicing fitness (ln),30 °C,-3.34 ± 0.38
UUUUAGCAAUAUUACGGUUG,self-splicing fitness (ln),30 °C,-1.77 ± 0.15
same,self-splicing fitness (ln),37 °C,-0.623 ± 0.23
UUUUAGCAAUAUUACGUACU,self-splicing fitness (ln),37 °C,0.399 ± 0.37
UUUUAGCAAUAUUACGUGUA,self-splicing fitness (ln),30 °C,-2.96 ± 0.27
same,self-splicing fitness (ln),37 °C,-1.84 ± 0.17
